Assay results published in patent publication US20220090138A1.

Legend:
[1] = target: … (EBV LMP2A) presented by HLA-A*0201 (human); assay: cell-based or functional assay
[2] = target: … (HCMV pp65) presented by HLA-A*0201 (human); assay: cell-based or functional assay

Work on “TCR recognizing … presented by A*0201 (PDB #3REV)” yielded an in vitro T cell activation assay (luciferase); targeting cassette design A [1] of 6.1, an in vitro T cell activation assay (luciferase); targeting cassette design B [1] of 6.3 and an in vitro T cell activation assay (luciferase); targeting cassette design C [1] of 7.6. The in vitro T cell activation assay (luciferase); targeting cassette design D [1] was 7, the in vitro T cell activation assay (luciferase); targeting cassette design E [1] was 5.9 and the in vitro T cell activation assay (luciferase); targeting cassette design F [1] was 3.7. The in vitro T cell activation assay (luciferase); targeting cassette design G [1] was 7.6, the in vitro T cell activation assay (luciferase); targeting cassette design H [1] was 5.4 and the in vitro T cell activation assay (luciferase); targeting cassette design I [1] was 6.2. The in vitro T cell activation assay (luciferase); targeting cassette design J [1] was 6.4, the induction of luciferase, in vitro T cell activation assay; short cassette AAY [1] was 11.3 and the luciferase induction, in vitro T cell activation assay; short cassette 9AA (relative to uninfected controls) [1] was 12. The luciferase induction, in vitro T cell activation assay; short cassette 17AA (relative to uninfected controls) [1] was 10.3, the luciferase induction, in vitro T cell activation assay; short cassette 25AA (relative to uninfected controls) [1] was 14.6 and the luciferase induction, in vitro T cell activation assay; short cassette AAY (relative to uninfected controls) [1] was 11.3. It also gave a luciferase induction, in vitro T cell activation assay; short cassette RR (relative to uninfected controls) [1] of 8.5.
“TCR recognizing … presented by A*0201 (PDB #5D2N)” was tested, and the in vitro T cell activation assay (luciferase); targeting cassette design A [2] was 32.5, the in vitro T cell activation assay (luciferase); targeting cassette design B [2] was 31.8 and the in vitro T cell activation assay (luciferase); targeting cassette design C [2] was 29.1. It also gave an in vitro T cell activation assay (luciferase); targeting cassette design D [2] of 29.1, an in vitro T cell activation assay (luciferase); targeting cassette design E [2] of 28.4 and an in vitro T cell activation assay (luciferase); targeting cassette design F [2] of 20.4. The in vitro T cell activation assay (luciferase); targeting cassette design G [2] was 35, the in vitro T cell activation assay (luciferase); targeting cassette design H [2] was 30.3 and the in vitro T cell activation assay (luciferase); targeting cassette design I [2] was 22.5. It also gave an in vitro T cell activation assay (luciferase); targeting cassette design J [2] of 38.1, an induction of luciferase, in vitro T cell activation assay; short cassette AAY [2] of 24.5 and a luciferase induction, in vitro T cell activation assay; short cassette 9AA (relative to uninfected controls) [2] of 33.6. For the same substance, the luciferase induction, in vitro T cell activation assay; short cassette 17AA (relative to uninfected controls) [2] was 42.8, the luciferase induction, in vitro T cell activation assay; short cassette 25AA (relative to uninfected controls) [2] was 42.3 and the luciferase induction, in vitro T cell activation assay; short cassette AAY (relative to uninfected controls) [2] was 24.5. The luciferase induction, in vitro T cell activation assay; short cassette DPP (linker designed to disrupt antigen processing) (relative to uninfected controls) [2] was 0.9 and the luciferase induction, in vitro T cell activation assay; short cassette RR (relative to uninfected controls) [2] was 21.7.
